Results on one molecule are retold here after patent US20050048070A1 (published 2005).

For assay [1], the target named is T1, K18(1-65) GST fusion protein (human, UniProt P05783 2-66).
T1 construct: Alone, not complexed; not shown: glutathione S-transferase (GST) fusion partner, modified pGEX-2T vector
T1 sequence: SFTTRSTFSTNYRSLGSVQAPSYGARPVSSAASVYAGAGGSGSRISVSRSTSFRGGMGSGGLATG
The experiment in a line: Western blot of SDS-PAGE-separated GST fusion proteins.

The target in assay [2] is T2, recombinant intact K8 (GST fusion protein) (human, UniProt P05787 2-483).
T2 construct: Alone, not complexed with K18; GST placed first as in pGEX vectors; also called full length K8; cytokeratin 8; not shown: glutathione S-transferase (GST) fusion partner, modified pGEX-2T vector
T2 chain: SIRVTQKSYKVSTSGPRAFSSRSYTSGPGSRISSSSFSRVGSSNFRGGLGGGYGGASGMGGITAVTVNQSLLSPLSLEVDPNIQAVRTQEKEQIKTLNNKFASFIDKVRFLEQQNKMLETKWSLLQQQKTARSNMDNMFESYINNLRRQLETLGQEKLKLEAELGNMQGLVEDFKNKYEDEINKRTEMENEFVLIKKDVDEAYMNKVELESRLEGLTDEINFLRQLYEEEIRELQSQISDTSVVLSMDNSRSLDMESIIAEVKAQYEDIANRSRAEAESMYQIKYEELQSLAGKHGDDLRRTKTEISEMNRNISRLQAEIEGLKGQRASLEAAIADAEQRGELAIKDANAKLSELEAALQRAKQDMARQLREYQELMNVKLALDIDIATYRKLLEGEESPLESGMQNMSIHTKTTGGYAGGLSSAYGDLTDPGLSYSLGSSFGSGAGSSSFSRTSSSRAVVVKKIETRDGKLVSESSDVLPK
The experiment in a line: Western blot of SDS-PAGE-separated K8 GST fusion proteins, stained with COU-1 alone.

Assay [3] deals with T3, K8(1-65) GST fusion protein (human, UniProt P05787 2-66).
T3 construct: Alone, not complexed; not shown: glutathione S-transferase (GST) fusion partner, modified pGEX-2T vector
T3 sequence: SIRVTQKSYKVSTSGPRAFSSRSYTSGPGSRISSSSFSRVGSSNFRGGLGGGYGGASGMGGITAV
The description is as above.

B1: human monoclonal IgM antibody COU-1 (antibody, V domains shown)
VH: GAEVKKPGASVKVSCKASDYTFSSYYMHWVRQAPGQGLEWMGIINPSGGSTSYAQKFQGRVTMTRDTSTNTVYMELSSLRSEDTAVYYCARDQVVVAATLSNYGMDVWGQGTTVTVSS
VL: ELTQSPGTLSLSPGERATLSCRASQSVSSSYLAWYQQKPGQAPRLLIYDASNRATGIPARFSGSGSGTDFTLTISSLEPEDFAVYYCQQGTNWGIAFGQGTRLDIKR
notes: Human IgM with kappa light chain, secreted by hybridoma B9165 (ECACC 87040201), purified from culture supernatant; also called HMab COU-1; HuMab COU-1
In the case of B1, the binding result in assay [1] is listed as “no binding (tested: COU-1 5 µg/ml)”; in assay [2] it was “no binding (tested: 5 µg/ml COU-1 (P-0279))”; in assay [3] it was “no binding (tested: 5 µg/ml COU-1 (P-0279))”.
